The text below walks through data of patent US6479637B1, “Hemoglobin-haptoglobin complexes” (Hemsol Inc., priority 1998, dated 2002).

In one data set the target is T1, haptoglobin 1-1 (Homo sapiens, UniProt P00738).
T1 construct: Hp 1-1 is composed of two α^1β dimers and has a molecular weight of about 98 kDa
T1 sequence (P00738 19-347 isoform P00738-2 limits assumed): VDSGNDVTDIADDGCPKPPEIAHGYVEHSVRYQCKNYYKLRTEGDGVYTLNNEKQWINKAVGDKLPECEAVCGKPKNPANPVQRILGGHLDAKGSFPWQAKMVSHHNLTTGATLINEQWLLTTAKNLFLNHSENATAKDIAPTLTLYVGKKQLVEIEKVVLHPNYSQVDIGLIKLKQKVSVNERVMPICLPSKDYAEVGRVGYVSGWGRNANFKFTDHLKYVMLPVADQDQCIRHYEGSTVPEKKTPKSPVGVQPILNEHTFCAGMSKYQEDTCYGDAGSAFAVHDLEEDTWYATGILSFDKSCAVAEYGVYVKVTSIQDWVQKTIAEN
T1 sequence (P00738 103-347 isoform P00738-2 limits assumed): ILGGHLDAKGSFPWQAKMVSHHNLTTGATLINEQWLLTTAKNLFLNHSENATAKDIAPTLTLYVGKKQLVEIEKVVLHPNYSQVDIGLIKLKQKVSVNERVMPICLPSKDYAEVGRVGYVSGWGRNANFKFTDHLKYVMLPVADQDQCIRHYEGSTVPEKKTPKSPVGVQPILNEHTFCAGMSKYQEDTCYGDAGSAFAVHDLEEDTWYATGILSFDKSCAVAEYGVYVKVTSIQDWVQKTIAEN
Kind of data set: Complex formation of modified hemoglobins with haptoglobin 1-1 (size exclusion / anion exchange chromatography). It counts as binding. To be noted: THb-PQ mixture with haptoglobin 1-1, room temperature, 21 hours. For orientation: In gel filtration, larger molecules generally elute earlier.

The next data set concerns plasmid DNA (pCMVbeta). Put plainly: Gel mobility shift assay of DNA binding. To be noted: 50 to 1600 ng of protein, 140 ng DNA. How it is done:
Gel mobility shift assays were conducted to evaluate the stoichiometry of binding of plasmid DNA (pCMVbeta) to the THb-Kn conjugates. This gel electrophoretic method is based on the observation that the migratory properties of the DNA are altered upon binding protein. Neither proteins nor DNA-protein complexes in which protein constitutes a significant part of their mass enter 1% agarose gels. If mixtures with an increasing THb-Kn to DNA ratio are analyzed, it is observed that the DNA band disappears at and above the ratio that corresponds to the stoichiometry of the complex. For each of the four conjugates and for the THb-K26kDa-Hp complex, solutions containing from 0.4 to 6400 ng of the conjugate (this weight based on the hemoglobin component) in 32 μL of 20 mM HEPES pH 7.3 containing 150 mM NaCl were prepared. […] The samples (15 μL) were analyzed on a 1% agarose gel containing ethidium bromide (0.2 μg/mL). The amount of conjugate which prevented DNA entry into the gel was determined.
FIG. 4A (left) and 4B (right) are depictions of gel mobility shift assays of haptoglobin-hemoglobin-DNA conjugates produced according to Example 4. […] The results for THb-K26kDa are in good agreement with the fluorescence quench assay which indicated 86% of fluorescence decrease at the same THb-K26kDa to DNA ratio. […]

The target of a further data set is T2, rat haptoglobin (Rattus norvegicus, UniProt P06866).
T2 construct: combined with rat serum containing haptoglobin; from tissue; host or cells: rat serum
T2 sequence (P06866 19-101 limits assumed): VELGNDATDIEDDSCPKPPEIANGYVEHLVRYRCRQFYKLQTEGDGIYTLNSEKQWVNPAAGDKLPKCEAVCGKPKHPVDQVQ
T2 sequence (P06866 103-347 limits assumed): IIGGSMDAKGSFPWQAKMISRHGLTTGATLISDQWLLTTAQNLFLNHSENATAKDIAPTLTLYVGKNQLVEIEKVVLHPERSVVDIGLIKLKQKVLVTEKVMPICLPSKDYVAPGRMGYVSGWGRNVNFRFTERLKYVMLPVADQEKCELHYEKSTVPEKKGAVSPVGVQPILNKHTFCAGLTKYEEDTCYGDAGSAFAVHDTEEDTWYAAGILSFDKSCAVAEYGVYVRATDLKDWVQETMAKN
Kind of data set: Binding of modified human Hb ([3H]-NEM-Hb) to rat haptoglobin in plasma (SEC). How it is done: 1 mCi of ^3H-N-ethylmaleimide ([^3H]-NEM) in pentane was evaporated in 0.5 mL phosphate buffer, and 25 mg of Hb in 1 mL buffer was added giving a final NEM:Hb ratio of 0.06:1, or 37 μCi/mg Hb. RP HPLC analysis after 24 hours at 4° C. indicated incorporation of the majority of the radiolabel into a modified beta peak. After 47 hr, a 15-fold excess (over βCys93 thiol) of non-radiolabeled NEM was added. Salts and unbound NEM were removed by gel filtration, and the final concentration adjusted to 10.2 mg Hb/mL. A small portion of this material (^3H-NEM-Hb) was then combined with rat serum containing haptoglobin to determine if all radiolabeled components bound to Hp. The Hb-binding capacity of the rat serum was adjusted to […] Hb/mL serum. 0.5 and 2.0 equivalents of ^3H-NEM-Hb, based on Hb-binding capacity, were combined with serum and analyzed -by size exclusion chromatography eluted under dissociating, non-denaturing conditions using 0.5 M MgCl2, 25 mM Tris pH 7.4 (FIG. 15). In the ^3H-NEM-Hb preparation, all radioactivity was associated with a 32 kDa peak. […] 7.3% of the radioactivity combining with plasma components appears in a high MW peak at 22 minutes.

The nature of data set [1]: Biodistribution of modified Hb and haptoglobin complexes in rat. The following applies: for AUC Liver / AUC Plasma: dose = ug Hb/g body weight, no extrapolation to time zero.
Method: The ability of Hp to target modified Hb to the liver was measured in a radioisotope biodistribution study. Two test articles were prepared from purified human HbA0 modified with tritium-labeled N-ethylmaleimide ([^3H]-NEM-Hb): [^3H]-NEM-Hb alone in Ringer's lactate, and [^3H]-NEM-Hb complexed to a slight excess of rat haptoglobin in rat plasma. Three treatment groups were analyzed; (A) normal rats received the modified Hb-haptoglobin complex in plasma, (B) normal rats received the modified Hb only (approximately twice the Hb-binding capacity of the rat), and (C) haptoglobin-depleted rats received the modified Hb only. Approximately 3 mg of Hb were administered to conscious Sprague-Dawley rats in each case. Liver and plasma samples were collected at 30, 60 and 120 minutes post-administration and radioactivity counted after solubilization and quenching.
[2] abbreviates: 30 minutes, haptoglobin-depleted rats (group C).
The mark [3] stands for this setting: 30 minutes, normal rats (groups A, B).
The mark [4] stands for this setting: haptoglobin-depleted rats (group C).

With “THb: TTDS (trimesoyl tris(3,5-dibromosalicylate)) cross-linked hemoglobin, hydrolyzed, without attached agent [reference compound]”, the “reacted with Hp (anion exchange chromatography)” value in the data set with haptoglobin 1-1 is given as 74%. Also, in the data set with plasmid DNA (pCMVbeta), the “DNA binding (change in DNA migration)” value is “does not bind DNA”.
“[^3H]-NEM-Hb: purified human HbA0 modified with tritium-labeled N-ethylmaleimide; given alone to groups B and C”: in the data set with rat haptoglobin, the “capability of all components to bind rat haptoglobin in plasma” value was “capable of binding rat haptoglobin in plasma”. The “radioactivity appearing in the Hb-haptoglobin peak” value with rat haptoglobin (0.5 eq. based on Hb-binding capacity of rat serum, SEC) is “all radioactivity appeared in the Hb-haptoglobin peak”. Besides, the “binding state at haptoglobin saturation” value in the data set with rat haptoglobin (2.0 eq. based on Hb-binding capacity of rat serum, SEC) was “haptoglobin is saturated and excess ^3H-NEM-Hb remains unbound”. In addition, in the data set with rat haptoglobin (rat serum, SEC), the “radioactivity combining with plasma components appearing in high MW peak at 22 minutes” value is recorded as 7.3%. For the same substance, in data set [1] (setting [2]), the “dose in the plasma and liver compartments relative to groups A and B” value is listed as “roughly half that amount”; the “total dose in the liver” value was determined as 11%. In data set [1] (setting [3]), the “dose in the plasma and liver compartments” value is reported as 60%; the “total dose in the liver” value is “approximately 20%”. In data set [1] (120 minutes, normal rats (groups A, B)), the “liver to plasma concentration/dose ratio” value is “approximately 4 times”. The “liver content relative to group C” value in data set [1] (120 minutes, normal rats vs haptoglobin-depleted rats given modified Hb only) turned out to be 2 fold. Moreover, in data set [1] (setting [4]), the “AUC Liver” value is 234.0 ug Hb · min/g/dose and the “AUC Plasma” value is reported as 163.0 ug Hb · min/mL/dose. In addition, the “liver uptake (area under distribution curve) relative to group C” value in data set [1] (normal rats (groups A, B) vs haptoglobin-depleted rats) was “approximately twice that of group C”. In addition, in data set [1] (normal rats (groups A, B)), the “AUC Liver” value is given as 510.4 ug Hb · min/g/dose and the “AUC Plasma” value is listed as 284.2 ug Hb · min/mL/dose.
Regarding “unmodified hemoglobin: unmodified (uncross-linked) hemoglobin remaining in the THb-PQ product mixture”, in the data set with haptoglobin 1-1, the “reacted with Hp (anion exchange chromatography)” value was “all”.
